Results on seven molecules are retold here after patent publication EP3964526A1 (Novartis AG, dated 2022).

Broadly, the Kd is the constant that tells how readily two partners part at equilibrium. As usually defined, the koff is the rate constant with which the complex falls apart. A word on the kon: it is the second-order rate constant of association.

B1: 567-min (scFv)
chain: EIVMTQSPSTLSASVGDRVIITCQADQSIYIWLSWYQQKPGKAPKLLIYKASTLESGVPSRFSGSGSGAEFTLTISSLQPDDFATYYCQNNAHYSTNGGTFGQGTKLTVLGGGGGSGGGGSGGGGSGGGGSEVQLVESGGGLVQPGGSLRLSCAASGFSLSDYYMCWVRQAPGKGLEWVSCLDYFGSTDDASWAKGRFTISRDNSKNTLYLQMNSLRAEDTAVYYCAKTDDSRGWGLNIWGQGTLVTVSS
B2: 567-max (scFv)
chain: B1 chain with A69T, E70Q, A154S, A155V, S180G, R202K, N204T, L209V, K228R
B3: 509-min (scFv)
chain: B1 chain with D26S, S28N, Y30R, D162S, F185V, S187D, D190Y
B4: 578-min (scFv)
chain: EIVMTQSPSTLSASVGDRVIITCQASEIIHSWLAWYQQKPGKAPKLLIYLASTLASGVPSRFSGSGSGAEFTLTISSLQPDDFATYYCQNVYLASTNGANFGQGTKLTVLGGGGGSGGGGSGGGGSGGGGSEVQLVESGGGLVQPGGSLRLSCAASGFSLTDYYYMTWVRQAPGKGLEWVSFIDPDDDPYYATWAKGRFTISRDNSKNTLYLQMNSLRAEDTAVYYCAKGDHNSGWGLDIWGQGTLVTVSS
B5: 578-max (scFv)
chain: B4 chain with A69T, E70Q, A154T, S181G, N205T, L210V, K229G
B6: 511-max (scFv)
chain: EIVMTQSPSTLSASVGDRVIITCQASQSINIWLSWYQQKPGKAPKLLIYRASTLASGVPSRFSGSGSGTEFTLTISSLQPDDFATYYCQANYAYSAGYGAAFGQGTKLTVLGGGGGSGGGGSGGGGSGGGGSEVQLVESGGGLVQPGGSLRLSCTVSGFSLNTYYMNWVRQAPGKGLEWVGIIAPDDTTYYASWAKSRSTISRDTSKNTVYLQMNSLRAEDTAVYYCARSGDTTAWGADIWGQGTLVTVSS
B7: 511-min (scFv, V domains shown)
VH: EVQLVESGGGLVQPGGSLRLSCAASGFSLNTYYMNWVRQAPGKGLEWVSIIAPDDTTYYASWAKSRFTISRDNSKNTLYLQMNSLRAEDTAVYYCAKSGDTTAWGADIWGQGTLVTVSS
VL: EIVMTQSPSTLSASVGDRVIITCQASQSINIWCSWYQQKPGKAPKLLIYRASTLASGVPSRFSGSGSGAEFTLTISSLQPDDFATYYCQANYAYSAGYGAAFGQGTKLTVL

Positions count from the first letter of the chain named.

Chain of VEGF (as used in the VEGFR competition ELISA) (P15692 whole entry): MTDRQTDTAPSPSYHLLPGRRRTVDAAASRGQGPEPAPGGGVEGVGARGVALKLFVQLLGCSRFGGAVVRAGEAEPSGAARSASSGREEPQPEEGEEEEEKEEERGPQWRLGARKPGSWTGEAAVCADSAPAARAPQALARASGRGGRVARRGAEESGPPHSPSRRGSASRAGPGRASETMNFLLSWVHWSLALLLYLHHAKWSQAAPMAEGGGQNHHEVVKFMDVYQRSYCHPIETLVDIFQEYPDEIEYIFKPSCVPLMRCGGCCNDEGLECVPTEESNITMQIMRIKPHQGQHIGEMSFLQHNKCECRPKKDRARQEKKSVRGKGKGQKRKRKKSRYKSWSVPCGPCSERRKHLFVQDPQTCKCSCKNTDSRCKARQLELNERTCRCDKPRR

In one test the target is T1, recombinant human VEGF165 (PeproTech EC Ltd.) (human, UniProt P15692-4 27-191).
T1 construct: Amine-coupled to a CM4 sensor chip; also called hVEGF165
T1 sequence (P15692 other isoform, or with tags, fused parts or gaps limits assumed): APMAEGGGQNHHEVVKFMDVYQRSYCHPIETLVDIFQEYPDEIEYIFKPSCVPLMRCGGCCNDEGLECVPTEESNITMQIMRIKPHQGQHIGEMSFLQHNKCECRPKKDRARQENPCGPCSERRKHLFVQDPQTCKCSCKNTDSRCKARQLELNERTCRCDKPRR
As to the kind of experiment: SPR BIAcore T100, hVEGF165 amine-coupled on CM4 chip, scFv as analyte. Background: Surface plasmon resonance follows binding to a sensor surface in real time, without labels.
On to B1, for which the Kd came to 0.23 nM, the koff was 0.000461 s⁻¹ and the kon worked out at 2.01e+06 M⁻¹ s⁻¹.

B2: the Kd worked out at 0.188 nM, the koff was found to be 0.000226 s⁻¹ and the kon was 1.2e+06 M⁻¹ s⁻¹.

On to B3, for which the Kd stood at 1.82 nM, the koff worked out at 0.00114 s⁻¹ and the kon is 623000 M⁻¹ s⁻¹.

Turning to B4, the Kd is 9.01 nM, the koff was 0.0103 s⁻¹ and the kon is 1.14e+06 M⁻¹ s⁻¹.

On to B5, for which the Kd turned out to be 0.439 nM, the koff is 0.000307 s⁻¹ and the kon is 700000 M⁻¹ s⁻¹.

B6: the Kd turned out to be 0.0667 nM, the koff was 4.4e-05 s⁻¹ and the kon was 659000 M⁻¹ s⁻¹.

B7: the Kd worked out at 2.53 nM, the koff came to 0.00128 s⁻¹ and the kon is 505000 M⁻¹ s⁻¹.

A further test addresses VEGF (as used in the VEGFR competition ELISA). Put plainly: competition ELISA against hVEGR1, EC50 ratio to reference Luc. Background: An ELISA detects its analyte on a solid surface through an enzyme-linked reagent.
For B1, the “Rel. activity hVEGR1 comp. ELISA (EC50Luc[nM]/EC50test[nM])” value (“Rel. activity hVEGR1 comp. ELISA” below) came out at 57 ratio.

B3: the “Rel. activity hVEGR1 comp. ELISA” value turned out to be 2.9 ratio.

Consider B4, for which the “Rel. activity hVEGR1 comp. ELISA” value came to 4.8 ratio.

In the case of B6, the “Rel. activity hVEGR1 comp. ELISA” value came to 8 ratio.

With B7, the “Rel. activity hVEGR1 comp. ELISA” value is 0.7 ratio.

The next test shares this target. As to the kind of experiment: competition ELISA against hVEGR1, EC50 ratio to reference Luc; first of two values in the cell.
As to B2, the “Rel. activity hVEGR1 comp. ELISA” value was determined as 15.7 ratio.

In the case of B5, the “Rel. activity hVEGR1 comp. ELISA” value is 35.5 ratio.

For the next test the target is unchanged. As to the kind of experiment: competition ELISA against hVEGR1, EC50 ratio to reference Luc; second of two values in the cell.
With B2, the “Rel. activity hVEGR1 comp. ELISA” value stood at 54.5 ratio.

Regarding B5, the “Rel. activity hVEGR1 comp. ELISA” value is 51.6 ratio.
